For the series, the system named is F1*sub RNA substrate (template-directed ligation). The experiment in a line: fraction ligated after 30 min (ligated reads / total reads); higher = more ligase activity; sequences stand for … in GAGACCGCAACTGAAAAGTTGT…AGTTCTGCACGTAGAAGCAAAAGGC
The settings on record: 42 °C. The gist of the method:
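Oligo-pool templates underwent PCR amplification, T7 transcription and gel purification to yield ribozyme variants. Gel-separated ligated and unligated bands were converted to complementary DNA with barcoded primers and sequenced on a MiSeq, keeping core bases of quality ≥20. The ratio of ligated reads to total reads gave the fraction ligated for every variant.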
Regarding “TATCACTTCGTAAGACACTTTGGATGGGTTA [3d1325]”, the fraction ligated amounted to 0.706.

Regarding “TATCACTTCGTAAGACACTTTGGATGGGTTG [3d1326]”, the fraction ligated was 0.795.

Turning to “TATCACTTCGTAAGACACTTTGGATGGGTTGA [2d129]”, the fraction ligated is 0.825.

“TATCACTTCGTAAGACACTTTGGATGGTTGA [3d1324]” showed a fraction ligated of 0.122.

In turn, “TATCACTTCGTAAGACACTTTGGTGGGTTGA [3d1322]” showed a fraction ligated of 0.085.

With “TATCACTTCGTAAGACATTTGGATGGGTTGA [3d1319]”, the fraction ligated was 0.84.

Sequence “TATCACTTCGTAAGACCTTTGGATGGGTTGA [3d1318]” had a fraction ligated of 0.802.

Sequence “TATCACTTCGTAAGCACTTTGGATGGGTTGA [3d1316]” yielded a fraction ligated of 0.797.

The sequence “TATCACTTCGTAGACACTTTGGATGGGTTGA [3d1314]” gave a fraction ligated of 0.783.

For “TATCACTTCTAAGACACTTTGGATGGGTTGA [3d1312]”, the fraction ligated is 0.774.

Sequence “TATCACTTGCAAGACACTTTGGATGGGTTGA [3d1599]” registered a fraction ligated of 0.798.

“TATCACTTGCGAAACACTTTGGATGGGTTGA [3d1614]”: the fraction ligated worked out at 0.819.

The sequence “TATCACTTGCGAAGAACTTTGGATGGGTTGA [3d1616]” returned a fraction ligated of 0.842.

Take “TATCACTTGCGAAGACACTTGGATGGGTTGA [3d1619]”: the fraction ligated turned out to be 0.785.

“TATCACTTGCGAAGACACTTTGATGGGTTGA [3d1620]” displayed a fraction ligated of 0.77.

Sequence “TATCACTTGCGAAGACACTTTGGAGGGTTGA [3d1622]” returned a fraction ligated of 0.105.

“TATCACTTGCGAAGACACTTTGGATGGGTTA [3d1624]” had a fraction ligated of 0.733.

As for “TATCACTTGCGAAGACACTTTGGATGGGTTG [3d1625]”, the fraction ligated was 0.824.

In turn, “TATCACTTGCGAAGACACTTTGGATGGGTTGA [2d165]” came in with a fraction ligated of 0.835.

“TATCACTTGCGAAGACACTTTGGATGGTTGA [3d1623]” yielded a fraction ligated of 0.248.

Turning to “TATCACTTGCGAAGACACTTTGGTGGGTTGA [3d1621]”, the fraction ligated was 0.0968.

Regarding “TATCACTTGCGAAGACATTTGGATGGGTTGA [3d1618]”, the fraction ligated worked out at 0.814.

As to “TATCACTTGCGAAGACCTTTGGATGGGTTGA [3d1617]”, the fraction ligated was determined as 0.779.

With “TATCACTTGCGAAGCACTTTGGATGGGTTGA [3d1615]”, the fraction ligated is 0.817.

“TATCACTTGCGAGACACTTTGGATGGGTTGA [3d1613]” showed a fraction ligated of 0.821.

The sequence “TATCACTTGCGTAAAACTTTGGATGGGTTGA [3d1639]” gave a fraction ligated of 0.858.

As for “TATCACTTGCGTAAACACTTGGATGGGTTGA [3d1642]”, the fraction ligated turned out to be 0.802.

As for “TATCACTTGCGTAAACACTTTGATGGGTTGA [3d1643]”, the fraction ligated stood at 0.768.

Regarding “TATCACTTGCGTAAACACTTTGGAGGGTTGA [3d1645]”, the fraction ligated was found to be 0.0516.

The sequence “TATCACTTGCGTAAACACTTTGGATGGGTTA [3d1647]” yielded a fraction ligated of 0.777.

In turn, “TATCACTTGCGTAAACACTTTGGATGGGTTG [3d1648]” returned a fraction ligated of 0.795.

Turning to “TATCACTTGCGTAAACACTTTGGATGGTTGA [3d1646]”, the fraction ligated came out at 0.149.

“TATCACTTGCGTAAACACTTTGGTGGGTTGA [3d1644]” registered a fraction ligated of 0.0539.

In turn, “TATCACTTGCGTAAACATTTGGATGGGTTGA [3d1641]” showed a fraction ligated of 0.822.

In turn, “TATCACTTGCGTAAACCTTTGGATGGGTTGA [3d1640]” returned a fraction ligated of 0.821.

In turn, “TATCACTTGCGTAACACTTTGGATGGGTTGA [3d1627]” registered a fraction ligated of 0.786.

In turn, “TATCACTTGCGTAAGAACTTGGATGGGTTGA [3d1660]” gave a fraction ligated of 0.827.

In the case of “TATCACTTGCGTAAGAACTTTGATGGGTTGA [3d1661]”, the fraction ligated stood at 0.853.

In turn, “TATCACTTGCGTAAGAACTTTGGAGGGTTGA [3d1663]” came in with a fraction ligated of 0.0542.

The sequence “TATCACTTGCGTAAGAACTTTGGATGGGTTA [3d1665]” returned a fraction ligated of 0.604.

“TATCACTTGCGTAAGAACTTTGGATGGGTTG [3d1666]” registered a fraction ligated of 0.833.

“TATCACTTGCGTAAGAACTTTGGATGGTTGA [3d1664]” registered a fraction ligated of 0.0836.

Regarding “TATCACTTGCGTAAGAACTTTGGTGGGTTGA [3d1662]”, the fraction ligated came out at 0.0953.

Consider “TATCACTTGCGTAAGAATTTGGATGGGTTGA [3d1659]”, for which the fraction ligated was 0.835.

In turn, “TATCACTTGCGTAAGACACTGGATGGGTTGA [3d1681]” registered a fraction ligated of 0.799.

As for “TATCACTTGCGTAAGACACTTGATGGGTTGA [3d1682]”, the fraction ligated turned out to be 0.747.

The sequence “TATCACTTGCGTAAGACACTTGGAGGGTTGA [3d1684]” came in with a fraction ligated of 0.0856.

Regarding “TATCACTTGCGTAAGACACTTGGATGGGTTA [3d1686]”, the fraction ligated stood at 0.558.

In the case of “TATCACTTGCGTAAGACACTTGGATGGGTTG [3d1687]”, the fraction ligated worked out at 0.796.

As for “TATCACTTGCGTAAGACACTTGGATGGTTGA [3d1685]”, the fraction ligated turned out to be 0.152.

In turn, “TATCACTTGCGTAAGACACTTGGTGGGTTGA [3d1683]” registered a fraction ligated of 0.139.

With “TATCACTTGCGTAAGACACTTTATGGGTTGA [3d1688]”, the fraction ligated amounted to 0.12.

In turn, “TATCACTTGCGTAAGACACTTTGAGGGTTGA [3d1690]” came in with a fraction ligated of 0.0844.

“TATCACTTGCGTAAGACACTTTGATGGGTTA [3d1692]” returned a fraction ligated of 0.138.

“TATCACTTGCGTAAGACACTTTGATGGGTTG [3d1693]” registered a fraction ligated of 0.725.

The sequence “TATCACTTGCGTAAGACACTTTGATGGTTGA [3d1691]” came in with a fraction ligated of 0.1.

On to “TATCACTTGCGTAAGACACTTTGGAGGGTTA [3d1699]”, for which the fraction ligated is 0.122.

Consider “TATCACTTGCGTAAGACACTTTGGAGGGTTG [3d1700]”, for which the fraction ligated turned out to be 0.0669.

As for “TATCACTTGCGTAAGACACTTTGGAGGTTGA [3d1698]”, the fraction ligated was found to be 0.0604.

In the case of “TATCACTTGCGTAAGACACTTTGGATGGGTT [3d1703]”, the fraction ligated turned out to be 0.704.

Take “TATCACTTGCGTAAGACACTTTGGATGGGTTA [2d177]”: the fraction ligated came out at 0.822.

With “TATCACTTGCGTAAGACACTTTGGATGGGTTG [2d178]”, the fraction ligated was found to be 0.825.

Sequence TATCACTTGCGTAAGACACTTTGGATGGGTTGA [1d9] came in with a fraction ligated of 0.85.

“TATCACTTGCGTAAGACACTTTGGATGGTTA [3d1701]” showed a fraction ligated of 0.227.

For “TATCACTTGCGTAAGACACTTTGGATGGTTG [3d1702]”, the fraction ligated was 0.208.

Sequence “TATCACTTGCGTAAGACACTTTGGATGGTTGA [2d176]” showed a fraction ligated of 0.324.

For “TATCACTTGCGTAAGACACTTTGGGGGTTGA [3d1694]”, the fraction ligated is 0.122.

“TATCACTTGCGTAAGACACTTTGGTGGGTTA [3d1696]” came in with a fraction ligated of 0.0753.

For “TATCACTTGCGTAAGACACTTTGGTGGGTTG [3d1697]”, the fraction ligated was 0.038.

Regarding “TATCACTTGCGTAAGACACTTTGGTGGTTGA [3d1695]”, the fraction ligated amounted to 0.0605.

For the sequence “TATCACTTGCGTAAGACACTTTGTGGGTTGA [3d1689]”, the fraction ligated came to 0.05.

On to “TATCACTTGCGTAAGACATTGGATGGGTTGA [3d1674]”, for which the fraction ligated is 0.802.
